# The nanobody polyreactivity screen of Harvey et al. (2022)
# Experiment: yeast display, Sf9 membrane polyspecificity reagent, FACS + sequencing; frameworks hold sequencing errors
# How it was run: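 Nanobodies came from a synthetic yeast display library in Saccharomyces cerevisiae BJ5465, induced with galactose for 36–48 hours and stained for 1 hour at 4 °C with 10% biotinylated, detergent-solubilized Sf9 membrane reagent. Cells were enriched on streptavidin microbeads and then FACS-sorted, with low and high (top ~1%) gates set on anti-HA fluorescence for expression and streptavidin fluorescence for reagent binding. Each polyreactivity label reflects the gate a clone came from. Genes were amplified by colony PCR, sequenced by MiSeq 2 × 250 and filtered by CDR length.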
row,Sequence,polyreactivity (PSR sort gate)
1,QVQLVESGGGLVQAGGSLRLSCAASGIIFHFNAMGWYRQARGKERELVASITRGGNTNYADSVKGRFTISRDNAKNTVYLQMNSLKPEDTAVYYCAAKYRSRYDWGQGTQVTVSS,low polyreactivity
2,QVQLEESGGGLVQAGGSLRLTCAASGSTFRYYALGWYRQAPGKERELVAAISGSGGRTYYADSVKGRFTISRDNAKNTVYLQMNSLKPEDTEVYYCNTRGRRTDYDYWGQGTQVTVSS,high polyreactivity
3,QFQLVESGGGLVQAGGSLRLSCAASGFIFGYNAMGWYRQAPGKERELVAAINWSGDITYYADSVKGRFTISRDNAKNTVYLQMNSLKPEDTAVYYCAADDYYIPSSWDFDYWGQGTQVTVSS,low polyreactivity
4,QVQLVESGGGLVQAGGSLRLSCAASGSIFGAYAMGWYRQAPGKERELVAAIDKSTGSTYYADSVKGRFTISRDNAKNTVYLQMNSLKPEDTAVYYCAKDWGVYQYSYDYWGQGTQVTVSS,low polyreactivity
5,QVQLVESGGGLVQAGGTLRLSCAASGSTFAVNAMGWYRQPPGKERELVAAISRSGGSTYYADSVKGRFTISRDNAKNTDYLQMKSLKPEDTAFYYCNTRTPYWFKSDYWGQGTQVTVSS,low polyreactivity
6,QVQLEESGGGLVQAGGSLRLSCAAYGSIIPFYPMGWYRQAPWTERELVAAISDRGGSTYYADSVKGRFTISRDNAKYTVYLQMNSLKPEDTAVYYGAKGGEVSQGYTDEYDYWGQGTQVTVSS,low polyreactivity
7,QVQLVESGGGLVQAGGSLRLSCAASGRTFVTYAMGWYRQAPGKERELVAAISKRGSRTYYADSVKGRFTISRDNAKNTVYLQMNSLKPEDTAVYYCNAYPYRTSYDYWGQGTQVTVSS,high polyreactivity
8,QVQLVESGGGLVQAGGSLRLSCAASGSISGYNAMGWYRPAPGKERELVAVITTDGSTNYADSVKGRFTISRDNAKNTVYLQMNSLKPEDTAVYYCNTDDGWRLLWEYDYWGQGTQVTVSS,low polyreactivity
9,QVQLVESGGRLVQAGGRLRLRSAASGFTFSRNAMGWYRQAPGKERELVAAIDSGGSTDYAVSVKGRFTISRDNAKNTVYLQMNSLKPADTAVYYCAKASSATRYVQLRQDYDYWGQGTQVTVSS,low polyreactivity
10,QVQLVESGVGLVQAGGSLRLSCAASGGIFFYYAMGWSRQAPGKERELVAAISYSGGSTYYADSVKGRFTISRDNAKHTVYLQMNSVKPDDTAVNYCAAVPDYYEYSPYDYWGQGTQVTVSS,low polyreactivity
11,QVQLVESGGGLVQAGGSLRLSCAASGRTFPYNTMGWYRQAPGKERELVASISYRGGTYYADSVKGRFTISRDNAKNTVYLQMNSLKPEDTAVYYCNAVYYFSPSYRGYYWGQGTQVTVSS,high polyreactivity
12,QVQLVESGGGLVQAGGSLRLSCAASGRIFPFYVMGWYRQAHGKERELVATINWSGGSTYYADSVKGRFTISRDNAKNTVYLQMNRLKPEDTAVYYCNGAPSDDYDYWGQGTQVTVSS,low polyreactivity
13,QVQLVESVGGLVQAGGSLRLSCAASGLILRFYAMVWYRQAPGKERELVAAISRNGGSTYYADSVKGRFTISRDNAKNTVYLQMNSLKPEDTAVYYCAVEYYVSWKLDYWGQGTQVTVSS,high polyreactivity
14,QVQLVESGGGLVQAGGSLRLSCAASGGIFTKNAMGWYRQAPGKERELVAGISRTGGNTYYADSVKGRFTISRDNAKNTVYLQMNSLKPEDSAVYYCAAGRYYAVWQSISGFDSWGQGTQVTVSS,low polyreactivity
15,QVQLVESGGRLVQAGGSLRLSCAASGRTFDYYDMGWYRQAPGKERELVAAITWGGGSTYYADSVKGRFSISRDNAKNTVYLQMNSLKPEDTAVYYCNADHFGWPWRVRIHEDDYWGQGTQVTVSS,low polyreactivity
16,QVQLVESGGGLVQAGGSLRLSCAASGSTFPTNTMGWYRQAPGKERELVAAITGGGSTYYADSVKGRFTISRDNAKNTVYLQMNSLKPEDTAVYYCAADDSWFYYGYGYWGQGTQVTVSS,low polyreactivity
17,QVQLVESGGGLVQAGGSLRLSCAASGSTLASYAMGWYRQAPGKERELVAAISSSGGSTYYADSVKGRFTISRDNAKNTVYLQMNSLKPEDTAVYYCAARTRTRYGIDYYWGQGTQVTVSS,high polyreactivity
18,QVQLVESGGGLVQAGGSLRLSCAASGLIFYPYAMGWYRQAPGKERELVAGISSSGDSTYYADSVKGRFTISRDNAKNTVYLEMNSLKPEDTAVYYCNADGWYFEYWGQGTHVTVSS,low polyreactivity
19,QVQLVESGGGLVQAGGSLRLSCAASGSIFLINAMGWYRQAPGTERELVAAISRRGGSTYYADSVKGRFTISRDNAKNTVYLQMNSLKPEDTAVYYCAATGHGRVYFGGGHWGQGTQVTVSS,high polyreactivity
20,QVQLVESGGGLVQAGGSLRLSCAASGSIFLYYAMGWYRQAPGKERELVAGINRVGSTNYADSVKGRFTISRDNAKNTVYLQMNSLKPEDTAVYYCNKRGTRSRRRGYWGQGTQVTVSS,low polyreactivity
21,QVQLVESGGGLVQAGGSLRLSCAAYGSIFGSYCMGWYRQAPGKERELVAAIRVSGGSTYYADSVKGRFTISRDNAKNTVYLQMNSLKPEDTAVYYCAARARSTPRKYYYTRGYWGQGSQVTVSS,high polyreactivity
22,QVQIVESGGGLVQAGGSLRLRCAASGSISGRNGMGWYRQAPGKERELVAAISTSGASTYYADSVKGRFTISRDNSKNTVYLQMNSLKTEDTAGYYCARLWGRRGYGYWGQGTQVTVSS,high polyreactivity

row,Sequence,polyreactivity (PSR sort gate)
1,QVQLVESGGGLVQAGGSLRLSCAASGYIFDYYAMGWYRQAPGKERELVAAISSSGGTTYYADSVKGRFTISRDNAKNTVYLQMNSLKPEDTEVYYCAARKSRWHRGYYYWGQGTQVTVSS,high polyreactivity
2,QVQLVESGGGLVQAGGSLRLSCAASGSTFDSNVMGWYRQAPGKERELVAVINGSGSNTYYADSVKGRFTISRDNAKNTVYLQMNSLKPEDTAVYYCAVERSVYSYYYWGQGTQVTVSS,high polyreactivity
3,QVQLVESGGGLDQAGGSLRLSCAASGITFPAYAMGLYRQAPGKEREWVAAITSGSSTNYADSVKGRFTISRDNAKNTVYLHLNSLKPEDTAVYYCAAQASYWGYRSGNRYGYWGQGTQVTVSS,high polyreactivity
4,QDQLVESGGGLVQAGGSLRLSCAASRRTFSNYAMGWYRPAPGKERELVAAISGTGDNTYYADSVKVRFTISRDNANYTVYLQMNSLKPEDTAVYYCNTVYYGWPRCYGYWGQGTQVTVSS,high polyreactivity
5,QVQLVESGGGLVQAGGSLRLSCAASGFIFSWYAMGWYRQAPGKERELVAAISRSGTRTYYADSVKGRFTISRDNAKNTVYLQMNSLKPEDTAVYYCAAAAKSWLFDYWGQGTQVTVSS,high polyreactivity
6,QVQLVESGGGLFQAGGSHRLSCAASGSTFKQYAMGWYRQAPGKERELVAAIDRGGSTYYADSVKGRFTITRDNAKITVYLQMTSLKPEDTAVYYCAARFVQYRYAYDYWGQGTQVTVSS,low polyreactivity
7,QVQLVESGGGLVQAGGSLRLSCAASGFISGFYGMGWYRQAPGKEREFVAAIDFIDGDTYYADSVKGRFTISRDNAKNTVYLQMNSLKPEDTAVYYCAADGSFWQFDYWGQGTQVTVSS,low polyreactivity
8,QVQLVESGGGLVQAGGSLRLSCAASGFIFRYNTMGWYRQAPGKQRELVATITSGGSTYYADSVKGRFTISRDNAKNTFYLQMNSLKPEDTAVYYFAKVRDVLWRFNYWGQGTQVTVSS,high polyreactivity
9,QVQLVESGGGLVQAGGSLRLSCAATGSTFRKYAMGWYRQAPGKEREFVAAISSAGGRTYYADSVKGRFTISRDNAKNTVYLQMNSLKPEDTAVYYCNAYFRYSYDYWGQGTQVTVSS,high polyreactivity
10,QVQLVESGGGLVQAGGSLRLSCAASGGIFHSNAMGWYRQAPGKERELVAAISYSGGSTYYADSVKGRFTISRDNAKNTVYLQMNSLKPEDTAVYYCAKRYYGSPQLRYYYWGQGTQVTVSS,high polyreactivity
11,QVQLVESGGGLVQAGGSLRLSCAASGSIFGVYVMGWYRQAPGKERELVAAITRGASTNYADSVKGRFTISRDNAKNTVYLQMNSLKPEDTAVYYCAADGWYSAVGVWLEYDYWGQGTQVTVSS,low polyreactivity
12,QVQLVESGGGLVEAGGSLRLSCAAGGRIVDRYAMGWYRQAPGKEREVVAAISDRGGSTYYADSVKGRFTISRDNAKNTVYLQMNSLKPEDTAVYYCNKVYGWYSFTWGPTASDYWGQGTQVTVSS,low polyreactivity
13,QFQLVESGGGLVQAGGSLRLSCAASGSTFDINDMGWYRQAPGKERELVAAITTSGASTYYADSVKGRFTISRDNAKNTVYLQMNSLKPEETAVSYCAADCLSYVWYVWYDYWGQGTKVTVSS,low polyreactivity
14,QVQLVESGGGLVQAGGSLRLSCDASGRIFSLYAMGWYRQAPGKERELVAAISRRSGNTNYADSVKGRFTISRDNAKNNVFLQLNSLKPEDTAVYFCAARPGAISSTSPYDYWGEGTQVTVSS,high polyreactivity
15,QVQLQESGDGLVQALGSLRLSCAASGYISGYYYMGWYRQAPGKERELVAGIDAFGSSTNYADCVKGRFTISRDNAKNTVYLQMNSPKPVDTAVYYCAAEYDDWDYHWYWGEGTQVTVSS,low polyreactivity
16,QVQLVESGGGLVQAGGSLRLSCAASGSTFFRYAMGWYRQAPGKERELVAVINRGGSTYYADSVKGRFTISRDNAKNTVYLQMNSLKPEDTAVYYCAKRVFYPGAYRYYYWGQGTQVTVSS,high polyreactivity
17,QVQLVESGGGLVQAGGSLRLSCAASGSIFTFYAMGWYRQAPGKERELVARITRGVSTNYADSVKGRFTISRDNAKITVYLQLNSLKPEDTAVYYCAAESGNRYEYWGQGTQVTVSS,low polyreactivity
18,QVHLVESGGGLVQAGGSLRLSCAASGGIFKQYAMGLYRQAPGKERDLVAAITWSGGSTYYADSVKGRFTISRDNAKNTVYLQMNRLKPVDTAVYYCAADRRYLDRDKHRYGYWGQGTQVTVSS,low polyreactivity
19,QVQLVESGGGLVQAGGSLRLSCAASGLTFYNNAMGWYRQAPGKERELVARISSGGSTYYADSVKGRFTISRDNAKNTVYLQMNSLKPEDTADYYCAAGRGYWWWYGYDYWGQGTQVTVSS,low polyreactivity
20,QVPLVESGGGLVQAAGSLRLSCAASGRISLGYAMGWYRQAPGKERELVAAISRGGTNTYYADSVKGRFTISRDNAKNTVYLQMNSLKPEDTAVYYCAARYSWGQGTQVTVSS,high polyreactivity
21,QVQLVESGGGLVQAGGSLRLSCAASGFTFWYYAMGWYRQAPGKERELVATITSGDSTKYADSVKGRFTISRDNAKNTVYLQMNSLKPEDTAVYDCAAEKVLPFIGYDYWGQGTQVTVSS,low polyreactivity
